From PMC8939769, “The SARS-CoV-2 monoclonal antibody combination, AZD7442, is protective in non-human primates and has an extended half-life in humans” (Science Translational Medicine, 2022) come the findings set out here.

Assay [1] addresses T1, SARS-CoV-2 S trimer (S2P ectodomain protein) (SARS-CoV-2, ancestral (Wuhan-Hu-1 …, UniProt P0DTC2, stabilised)). The experiment in a line: cell-based or functional assay.
Assay [2] concerns the target T1, SARS-CoV-2 S trimer (S2P ectodomain …). Description: not stated; binding kinetics (ka, kd, KD) on the SARS-CoV-2 S trimer (S2P ectodomain protein); representative of at least two independent assays; assay details in the Supplementary materials. Particulars: both partners purified.

In general, Kd refers to the equilibrium constant for the complex coming apart. Low values mean higher affinity, high ones lower affinity.

B1: AZD8895 (tixagevimab) (antibody, V domains shown)
VH: QMQLVQSGPEVKKPGTSVKVSCKASGFTFMSSAVQWVRQARGQRLEWIGWIVIGSGNTNYAQKFQERVTITRDMSTSTAYMELSSLRSEDTAVYYCAAPYCSSISCNDGFDIWGQGTMVTVSS
VL: not shown
For B1, in assay [1], the “neutralization of the USA-WA1/2020 strain of SARS-CoV-2 in vitro, IC50” value was found to be 9 ng/mL. Also, binding in assay [2] was characterised by a dissociation constant (Kd) of 2.8 pM.
